Measurements reported in patent US20160108091A1 (Novartis, published 2016).
Bridges are numbered along the chain shown (N, C = ends). [ ]: non-standard residue; d: D form. The star is where a group is joined. pGlu = O=C1CC[C@@H](C(=O)O)N1; NHPhenethyl = c1ccc(CCN*)cc1; d(hCys) = N[C@H](CCS)C(=O)O; dNle = CCCC[C@@H](N)C(=O)O; hCys = N[C@@H](CCS)C(=O)O; Nle = CCCC[C@H](N)C(=O)O

T1: human APJ receptor (hAPJ) (human, UniProt P35414 1-380)
T1 sequence (looked up): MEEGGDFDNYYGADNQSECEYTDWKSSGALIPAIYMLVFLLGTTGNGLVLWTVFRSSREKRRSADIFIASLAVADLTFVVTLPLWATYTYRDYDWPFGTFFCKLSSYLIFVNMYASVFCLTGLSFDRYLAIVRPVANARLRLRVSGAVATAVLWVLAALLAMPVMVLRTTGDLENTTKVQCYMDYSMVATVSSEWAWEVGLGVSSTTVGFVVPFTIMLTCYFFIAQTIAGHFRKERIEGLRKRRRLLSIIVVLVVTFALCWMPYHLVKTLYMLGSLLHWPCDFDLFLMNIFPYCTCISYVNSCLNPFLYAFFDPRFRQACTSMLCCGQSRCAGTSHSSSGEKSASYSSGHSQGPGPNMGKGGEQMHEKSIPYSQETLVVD


Biological target: T1, human APJ receptor (hAPJ)
Assay: cell-based or functional assay

hAPJ Ca^2+ Flux EC50	Binder
2.9 nM	[pGlu]RCRLSCKGP[dNle][dA][dF]-OH (disulfide 3-7; SMILES CCCC[C@@H](NC(=O)[C@@H]1CCCN1C(=O)CNC(=O)[C@H](CCCCN)NC(=O)[C@@H]1CSSC[C@H](NC(=O)[C@H](CCCNC(=N)N)NC(=O)[C@@H]2CCC(=O)N2)C(=O)N[C@@H](CCCNC(=N)N)C(=O)N[C@@H](CC(C)C)C(=O)N[C@@H](CO)C(=O)N1)C(=O)N[C@H](C)C(=O)N[C@H](Cc1ccccc1)C(=O)O) [pE-R-C*-R-L-S-C*-K-G-P-(D-Nle)-a-f-OH]
46.9 nM	Ac-CRPRLSCKGP[Nle]P[dF]-OH (disulfide 1-7; SMILES CCCC[C@H](NC(=O)[C@@H]1CCCN1C(=O)CNC(=O)[C@H](CCCCN)NC(=O)[C@@H]1CSSC[C@H](NC(C)=O)C(=O)N[C@@H](CCCNC(=N)N)C(=O)N2CCC[C@H]2C(=O)N[C@@H](CCCNC(=N)N)C(=O)N[C@@H](CC(C)C)C(=O)N[C@@H](CO)C(=O)N1)C(=O)N1CCC[C@H]1C(=O)N[C@H](Cc1ccccc1)C(=O)O) [Ac-C*-R-P-R-L-S-C*-K-G-P-Nle-P-f-OH]
14.1 nM	Ac-[d(hCys)]RPRLS[hCys]KGP[Nle]PF-OH (disulfide 1-7; SMILES CCCC[C@H](NC(=O)[C@@H]1CCCN1C(=O)CNC(=O)[C@H](CCCCN)NC(=O)[C@@H]1CCSSCC[C@@H](NC(C)=O)C(=O)N[C@@H](CCCNC(=N)N)C(=O)N2CCC[C@H]2C(=O)N[C@@H](CCCNC(=N)N)C(=O)N[C@@H](CC(C)C)C(=O)N[C@@H](CO)C(=O)N1)C(=O)N1CCC[C@H]1C(=O)N[C@@H](Cc1ccccc1)C(=O)O) [Ac-(D-hC)*-R-P-R-L-S-hC*-K-G-P-Nle-P-F-OH]
174 nM	Ac-[d(hCys)]RPRLS[hCys]KGP[dF][dA][dF]-OH (disulfide 1-7; SMILES CC(=O)N[C@@H]1CCSSCC[C@@H](C(=O)N[C@@H](CCCCN)C(=O)NCC(=O)N2CCC[C@H]2C(=O)N[C@H](Cc2ccccc2)C(=O)N[C@H](C)C(=O)N[C@H](Cc2ccccc2)C(=O)O)NC(=O)[C@H](CO)NC(=O)[C@H](CC(C)C)NC(=O)[C@H](CCCNC(=N)N)NC(=O)[C@@H]2CCCN2C(=O)[C@H](CCCNC(=N)N)NC1=O) [Ac-(D-hC)*-R-P-R-L-S-(hC)*-K-G-P-f-a-f-OH]
3.2 nM	Ac-CRPRLSCKGP[Nle]P-NHPhenethyl (disulfide 1-7) [Ac-C*-R-P-R-L-S-C*-K-G-P-Nle-P-NH(Phenethyl)]
48.7 nM	Ac-[dC]RPRLS[dC]KGP[Nle]PF-OH (disulfide 1-7; SMILES CCCC[C@H](NC(=O)[C@@H]1CCCN1C(=O)CNC(=O)[C@H](CCCCN)NC(=O)[C@H]1CSSC[C@@H](NC(C)=O)C(=O)N[C@@H](CCCNC(=N)N)C(=O)N2CCC[C@H]2C(=O)N[C@@H](CCCNC(=N)N)C(=O)N[C@@H](CC(C)C)C(=O)N[C@@H](CO)C(=O)N1)C(=O)N1CCC[C@H]1C(=O)N[C@@H](Cc1ccccc1)C(=O)O) [Ac-c*-R-P-R-L-S-c*-K-G-P-Nle-P-F-OH]
21.4 nM	Ac-[dC]RPRLSCKGP[Nle]PF-OH (disulfide 1-7; SMILES CCCC[C@H](NC(=O)[C@@H]1CCCN1C(=O)CNC(=O)[C@H](CCCCN)NC(=O)[C@@H]1CSSC[C@@H](NC(C)=O)C(=O)N[C@@H](CCCNC(=N)N)C(=O)N2CCC[C@H]2C(=O)N[C@@H](CCCNC(=N)N)C(=O)N[C@@H](CC(C)C)C(=O)N[C@@H](CO)C(=O)N1)C(=O)N1CCC[C@H]1C(=O)N[C@@H](Cc1ccccc1)C(=O)O) [Ac-c*-R-P-R-L-S-C*-K-G-P-Nle-P-F-OH]
410 nM	Ac-[d(hCys)]RPRLS[d(hCys)]KGP[Nle]PF-OH (disulfide 1-7; SMILES CCCC[C@H](NC(=O)[C@@H]1CCCN1C(=O)CNC(=O)[C@H](CCCCN)NC(=O)[C@H]1CCSSCC[C@@H](NC(C)=O)C(=O)N[C@@H](CCCNC(=N)N)C(=O)N2CCC[C@H]2C(=O)N[C@@H](CCCNC(=N)N)C(=O)N[C@@H](CC(C)C)C(=O)N[C@@H](CO)C(=O)N1)C(=O)N1CCC[C@H]1C(=O)N[C@@H](Cc1ccccc1)C(=O)O) [Ac-(D-hC)*-R-P-R-L-S-(D-hC)*-K-G-P-Nle-P-F-OH]
194 nM	Ac-CRPRLS[dC]KGP[Nle]PF-OH (disulfide 1-7; SMILES CCCC[C@H](NC(=O)[C@@H]1CCCN1C(=O)CNC(=O)[C@H](CCCCN)NC(=O)[C@H]1CSSC[C@H](NC(C)=O)C(=O)N[C@@H](CCCNC(=N)N)C(=O)N2CCC[C@H]2C(=O)N[C@@H](CCCNC(=N)N)C(=O)N[C@@H](CC(C)C)C(=O)N[C@@H](CO)C(=O)N1)C(=O)N1CCC[C@H]1C(=O)N[C@@H](Cc1ccccc1)C(=O)O) [Ac-C*-R-P-R-L-S-c*-K-G-P-Nle-P-F-OH]
32.2 nM	Ac-CRPRLSCKGP[Nle]-NHPhenethyl (disulfide 1-7; SMILES CCCC[C@H](NC(=O)[C@@H]1CCCN1C(=O)CNC(=O)[C@H](CCCCN)NC(=O)[C@@H]1CSSC[C@H](NC(C)=O)C(=O)N[C@@H](CCCNC(=N)N)C(=O)N2CCC[C@H]2C(=O)N[C@@H](CCCNC(=N)N)C(=O)N[C@@H](CC(C)C)C(=O)N[C@@H](CO)C(=O)N1)C(=O)NCCc1ccccc1) [Ac-C*-R-P-R-L-S-C*-K-G-P-Nle-NH(Phenethyl)]
1 nM	[pGlu]RCRLSCKGP[Nle]PF-OH (disulfide 3-7; SMILES CCCC[C@H](NC(=O)[C@@H]1CCCN1C(=O)CNC(=O)[C@H](CCCCN)NC(=O)[C@@H]1CSSC[C@H](NC(=O)[C@H](CCCNC(=N)N)NC(=O)[C@@H]2CCC(=O)N2)C(=O)N[C@@H](CCCNC(=N)N)C(=O)N[C@@H](CC(C)C)C(=O)N[C@@H](CO)C(=O)N1)C(=O)N1CCC[C@H]1C(=O)N[C@@H](Cc1ccccc1)C(=O)O) [pE-R-C*-R-L-S-C*-K-G-P-Nle-P-F-OH]
79.3 nM	Ac-[dC]RPRLS[hCys]KGP[dNle][dA][dF]-OH (not fully specified; printed as Ac-c-R-P-R-L-S-(hC)-K-G-P-(D-Nle)-a-f-OH; cysteine pairing not given here) [Ac-c-R-P-R-L-S-(hC)-K-G-P-(D-Nle)-a-f-OH]
9.4 nM	Ac-CRPRLSCKGP[Nle]PF-OH (disulfide 1-7; SMILES CCCC[C@H](NC(=O)[C@@H]1CCCN1C(=O)CNC(=O)[C@H](CCCCN)NC(=O)[C@@H]1CSSC[C@H](NC(C)=O)C(=O)N[C@@H](CCCNC(=N)N)C(=O)N2CCC[C@H]2C(=O)N[C@@H](CCCNC(=N)N)C(=O)N[C@@H](CC(C)C)C(=O)N[C@@H](CO)C(=O)N1)C(=O)N1CCC[C@H]1C(=O)N[C@@H](Cc1ccccc1)C(=O)O) [Ac-C*-R-P-R-L-S-C*-K-G-P-Nle-P-F-OH]
12.2 nM	Ac-[dC]RPRLS[hCys]KGP[Nle]PF-OH (disulfide 1-7; SMILES CCCC[C@H](NC(=O)[C@@H]1CCCN1C(=O)CNC(=O)[C@H](CCCCN)NC(=O)[C@@H]1CCSSC[C@@H](NC(C)=O)C(=O)N[C@@H](CCCNC(=N)N)C(=O)N2CCC[C@H]2C(=O)N[C@@H](CCCNC(=N)N)C(=O)N[C@@H](CC(C)C)C(=O)N[C@@H](CO)C(=O)N1)C(=O)N1CCC[C@H]1C(=O)N[C@@H](Cc1ccccc1)C(=O)O) [Ac-c*-R-P-R-L-S-hC*-K-G-P-Nle-P-F-OH]
